In patent US8846873B2, “Antibodies directed to GPNMB and uses thereof” (Celldex Therapeutics, Inc., priority 2004, dated 2014):
“Also recorded” adds a separate entry of the source. Structures can show the parent of a compound that is named as a salt. Where a SMILES comes first, the peptide text is derived from it. [ ]: non-standard residue; d: D form. The star is where a group is joined. Dolaproine = CO[C@@H]([C@@H]1CCCN1)[C@@H](C)C(=O)O; Dil = CC[C@H](C)[C@H](NC)[C@@H](CC(=O)O)OC; X1 = C[C@@H](N*)[C@@H](O)c1ccccc1; NMeV = CN[C@H](C(=O)O)C(C)C

What was measured:
[1] = tested on: SK-MEL-5 melanoma xenografts; experiment: Human SK-MEL-5 melanoma xenograft in athymic mice; format: in vivo
Description: (§1) Test Animals: Five- to 6-week old athymic mice (CD-1 nu/nu females), used for human tumor xenografts, were obtained from Harlan Laboratories (Indianapolis, Ind.). Animals were housed in specific pathogen-free conditions, according to the guidelines of the Association for Assessment and Accreditation of Laboratory Animal Care International (AAALAC International). Test animals were provided pelleted food and water ad libitum and kept in a room with conditioned ventilation (HVAC), temperature (22°±2° C.), relative humidity (55%±15%), and photoperiod (12 hr). All studies were carried out with approved institutional animal care and use protocols.
(§2) Human Melanoma Xenograft Models. The tumor inhibitory activity of the CR011-MMAE immunoconjugate was measured in an anti-tumor xenograft model using athymic mice, according to published methods (see Geran et al., Cancer Chemother. Rep. 3:1-104 (1972)). […] When tumors became established (10-20 days), the animals were pair-matched into groups (n=6 mice/group), and treatment was administered by intravenous injection (tail vein).
(§3) The SK-MEL-2 human melanoma (ATCC #HTB-68) was derived from a metastatic site (skin of thigh) of a person with malignant melanoma, and the SK-MEL-5 human melanoma (ATCC #HTB-70) was derived from a metastatic site (axillary lymph node) of a person with malignant melanoma (see Fogh et al., J. Natl. Cancer Inst. 59: 221-226 (1977)). Both cell lines were obtained from the American Type Culture Collection.
(§4) The effects of treatment were monitored by repetitive tumor measurements across 2 diameters with Vernier calipers; tumor size (in mg) was calculated using a standard formula, (W^2×L)/2, assuming a specific gravity of 1.0. Tumor size and body weights were assessed twice weekly. Mice were examined daily, however, and moribund animals were humanely euthanized if clinical indications of excessive pain or distress were noted (i.e., prostration, hunched posture, paralysis/paresis, distended abdomen, ulcerations, abscesses, seizures, and/or hemorrhages). Animals with tumors exceeding 2,000 mg were removed from the study and euthanized humanely.
Soon after the commencement of treatment with paclitaxel, however, significant tumor growth inhibition was observed (P≦0.039) at day 3 after treatment began, and this anti-tumor effect continued, producing 100% growth inhibition (stasis). The responses of SK-MEL-5-bearing test animals to vinblastine and paclitaxel were short-lived. After cessation of treatment at the maximally tolerated doses, tumors resumed rapid, progressive growth.

[2] = tested on: SK-MEL-2 melanoma xenografts; experiment: Human SK-MEL-2 melanoma xenograft in athymic mice; format: in vivo
Description: as §1, §2, §3, §4
No apparent or statistically significant anti-tumor effects were observed. […] In preliminary studies, tumor regression was complete and was not followed by regrowth of the tumor despite lengthy observation periods (up to 200 days).

[3] = tested on: SK-Mel-2 cells; experiment: Flow cytometry of CR011 binding to cell surface CG56972/GPNMB; design: species or system human; conditions: SK-MEL-2
Description: Flow Cytometry: Quantitative analysis of GPNMB expression on the cell surface of cell lines was determined by flow cytometry. […] Cells were fixed in 1% paraformaldehyde/PBS and examined on a Becton Dickinson FACSCalibur flow cytometer. Data analysis was performed with Becton Dickinson Cell Quest software version 3.3 and the geometric mean fluorescence intensity ratio (GMR) was determined for each cell type.
Flow Cytometry: Quantitative analysis of CG56972 expression on the surface of cell lines was determined by flow cytometry (FACS). […] Cells were fixed in 1% paraformaldehyde/PBS and examined on a Becton Dickinson FACSCalibur flow cytometer. Data analysis was performed with Becton Dickinson Cell Quest software version 3.3 and the geometric mean fluorescence intensity ratio (GMR) was determined for each cell type.

[4] = tested on: SK-Mel-2 cells; experiment: ADCC assay with human PBMC (DELFIA EuTDA cytotoxicity); format: cell-based; conditions: human PBMC 30 to 100 fold; 2, 5, 10 μg/200 μl
Description: We next examined whether the CR0111gG1 mAb could induce ADCC in SK-MEL-2 cells in culture in the presence of human PBMC. Human PBMC were isolated from whole blood using a Ficoll-Plaque. Briefly, in a 50 mL tube, 15 mL of PBS was added to 20 mL of whole blood which was underlayed with 10 mL Ficoll-Plaque and the tube was centrifuged at 2000 RPM. Mononuclear cells were collected from the interface and washed 3 times with PBS. The ADCC assay was carried out in a 96 well plate using a fluorescence assay for cytolysis from Perkin-Elmer (DELFIA EuTDA Cytotoxic assay). The procedure is based on loading target cells with a fluorescence enhancing ligand (BATDA, bis (acetoxymethyl) terpyridine—dicarboxylate). The hydrophic ligand penetrates the membrane quickly. Within the cell the esterbonds are hydrolyzed to form a hydrophilic ligand (TDA, terpyridine—dicarboxylic acid) which can no longer pass through the membrane. After cytolysis the ligand is released and introduced to the Europium solution. The europium and the ligand form a highly fluorescent and stable chelate (EuTDA). Fluorescence intensity are recorded using excitation and emission wavelengths as λex=340 nm and λem=613 nm, respectively.

[5] = target: T1, GPNMB (Homo sapiens, UniProt Q14956); experiment: Binning of antibodies (Luminex competitive binding)
T1 construct: made in house; host or cells: HEK 293
T1 sequence (Q14956 23-492): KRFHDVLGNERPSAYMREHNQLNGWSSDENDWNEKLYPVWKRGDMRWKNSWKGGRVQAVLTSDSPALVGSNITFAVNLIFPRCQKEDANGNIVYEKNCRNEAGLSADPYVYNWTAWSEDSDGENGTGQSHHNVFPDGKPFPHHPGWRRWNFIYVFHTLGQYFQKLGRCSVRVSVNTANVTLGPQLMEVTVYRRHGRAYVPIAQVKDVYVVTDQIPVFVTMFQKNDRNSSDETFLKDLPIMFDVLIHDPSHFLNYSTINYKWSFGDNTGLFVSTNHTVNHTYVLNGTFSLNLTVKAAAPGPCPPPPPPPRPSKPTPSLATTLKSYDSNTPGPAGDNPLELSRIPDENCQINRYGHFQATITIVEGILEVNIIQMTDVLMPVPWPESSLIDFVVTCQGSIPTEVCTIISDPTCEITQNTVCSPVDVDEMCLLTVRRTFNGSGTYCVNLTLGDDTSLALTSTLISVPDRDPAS
Description: Certain antibodies, described herein were binned in accordance with the protocol described in U.S. Patent Application Publication No. 20030157730. MxhIgG conjugated beads are prepared for coupling to primary antibody. The volume of supernatant needed is calculated using the following formula: (n+10)×50 μL (where n=total number of samples on plate). Where the concentration is known, 0.5 μg/mL is used. Bead stock is gently vortexed, then diluted in supernatant to a concentration of 2500 of each bead per well or 0.5×10^5/mL and incubated on a shaker in the dark at RT overnight, or 2 hours if at a known concentration of […]. Following aspiration, 50 μL of each bead is added to each well of filter plate, then washed once by adding 100 μL/well wash buffer and aspirating. Antigen and controls are added to filter plate 50 μL/well then covered and allowed to incubate in the dark for 1 hour on shaker. Following a wash step, a secondary unknown antibody is added at 50 μL/well using the same dilution (or concentration if known) as is used for the primary antibody. The plates are then incubated in the dark for 2 hours at RT on shaker followed by a wash step. Next, 50 μL/well biotinylated mxhIgG diluted 1:500 is added and allowed to incubate in the dark for 1 hour on shaker at RT. Following a wash step, 50 μL/well Streptavidin-PE is added at 1:1000 and allowed to incubate in the dark for 15 minutes on shaker at RT.

[6] = tested on: UACC-62; experiment: Anti GPNMB antibody mediated indirect cell killing (saporin secondary antibody-toxin conjugate, colony count); format: cell-based, human; conditions: 5-FU at 600 uM, positive reagent control
Description: UACC-62, a GPNMB antigen expressing cell line, and TK10, a non-expressing cell line were plated onto flat bottom 96-well tissue culture plates (Becton Dickinson, Franklin Lakes, N.J., USA) at a density of 3000 cells per well. Once the cells reached ˜25% confluency, 100 ng/well of secondary antibody-toxin conjugate (goat anti-human IgG-saporin; Advanced Targeting Systems, San Diego, USA, HUM-ZAP; cat. # IT-22) was added. Anti-GPNMB MAbs 2.10.2, 2.22.1, 1.15.1 or isotype control mAb (pK16.3) were added to each well at a final concentration of 10 or 50 ng/mL. An anti-EGFR monoclonal antibody (MS-269-PABX, NeoMarkers, Fremont, Calif., USA) was used as a positive primary antibody control. Chemotherapy reagent 5-FU at 600 uM was used as a positive reagent control. On day 5, the cells were trypsinized, transferred to 6-well tissue culture plates and incubated at 37° C. Plates were examined daily and between 8-10 days, all plates were Giemsa stained and colonies were counted.

## CC[C@]1(O)C[C@@H]2CN(CCc3c([nH]c4ccccc34)[C@@](C(=O)OC)(c3cc4c(cc3OC)N(C)[C@H]3[C@@](O)(C(=O)OC)[C@H](OC(C)=O)[C@]5(CC)C=CCN6CC[C@]43[C@@H]65)C2)C1 [vinblastine, vinblastine sulfate, reference compound]
[1]; CR011-ONC-3, i.v., vs saline and PBS control groups
  anti-tumor effect: noticeable, but not significant tumor growth inhibition
[2]; Study N-386, i.v., CR011-vcMMAE 20, 10, 5 or 2.5 mg/kg q4d x4, vinblastine […] q4d x4
  anti-tumor effect: very slight, but not significant, anti-tumor effect

## CR011 IgG1: CR011 mAb 1.15.1 switched to IgG1 constant region; heavy chain SEQ ID NO: 395
[3]
  FACS shifts compared to isotype control mAbs: comparable FACS shifts
[4]
  ADCC / cytolysis of SK-MEL-2 cells: mediated ADCC; also recorded: caused cytolysis of SK-MEL-2 cells in a dose dependent manner

## 1.15: anti-GPNMB antibody 1.15 of the binning tables; line of the lead mAb 1.15 / CR011
[5]; bin assignment of Table 8
  bin: VIII
[5]; bin assignment of Table 9, Cut-off = 90
  bin: VIII
[5]; paired with 1.1
  binning signal (Table 8): 91
[5]; paired with 1.11
  binning signal (Table 8): 10
  binning signal (Table 9): 19
[5]; paired with 1.12
  binning signal (Table 8): 15
  binning signal (Table 9): 21
[5]; paired with 1.13
  binning signal (Table 8): 13
  binning signal (Table 9): 5
[5]; paired with 1.15
  binning signal (Table 8): 0
  binning signal (Table 9): 0
[5]; paired with 1.2
  binning signal (Table 8): 79
  binning signal (Table 9): 90
[5]; paired with 1.3
  binning signal (Table 8): 71
  binning signal (Table 9): 51
[5]; paired with 1.5
  binning signal (Table 8): 15
  binning signal (Table 9): −9
[5]; paired with 1.7
  binning signal (Table 8): 21
  binning signal (Table 9): 17
[5]; paired with 1.8
  binning signal (Table 8): 8
  binning signal (Table 9): 12
[5]; paired with 1.9
  binning signal (Table 8): 12
  binning signal (Table 9): 19
[5]; paired with BB
  binning signal (Table 8): −19
  binning signal (Table 9): 59
[5]; paired with xV5
  binning signal (Table 8): 89

## CC[C@H](C)[C@@H]([C@@H](CC(=O)N1CCC[C@H]1[C@H](OC)[C@@H](C)C(=O)N[C@H](C)[C@@H](O)c1ccccc1)OC)N(C)C(=O)[C@@H](NC(=O)[C@@H](NC)C(C)C)C(C)C [free monomethylauristatin E, monomethylauristatin E, reference compound] (H-[NMeV]V[Dil][Dolaproine]-X1)
[2]; CR011-ONC-1, CR011-vcMMAE 5 mg/kg/treatment i.v. q4d x4, components at doses identical to those in the immunoconjugate
  tumor response: lack of responses; also recorded: lack of tumor growth inhibition

## CC(=O)O[C@H]1C(=O)[C@@]2(C)[C@H]([C@H](OC(=O)c3ccccc3)[C@]3(O)C[C@H](OC(=O)[C@H](O)[C@@H](NC(=O)c4ccccc4)c4ccccc4)C(C)=C1C3(C)C)[C@]1(OC(C)=O)CO[C@@H]1C[C@@H]2O [paclitaxel, reference compound]
[1]; paclitaxel group
  long-term, tumor-free survivors: One long-term, tumor-free survivor

## O=c1[nH]cc(F)c(=O)[nH]1 [Mab 5-FU, 5-FU]
[6]
  killing of cells: complete killing
